Key:
[1] = substrate: CC(=O)CC(=O)SCCNC(=O)CCNC(=O)[C@H](O)C(C)(C)COP(=O)(O)OP(=O)(O)OC[C@H]1O[C@@H](n2cnc3c(N)ncnc32)[C@H](O)[C@@H]1OP(=O)(O)O; experiment: purified protein; format: biochemical, Nitrosopumilus maritimus; conditions: 0.5 mM NADH, 100 mM Tris-HCl pH 7.8, 30°C, reverse reaction, monomeric enzyme
[2] = substrate: C[C@H](O)CC(=O)SCCNC(=O)CCNC(=O)[C@H](O)C(C)(C)COP(=O)(O)OP(=O)(O)OC[C@H]1O[C@@H](n2cnc3c(N)ncnc32)[C@H](O)[C@@H]1OP(=O)(O)O; experiment: purified protein; format: biochemical, Nitrosopumilus maritimus; conditions: 2 mM NAD, 100 mM Tris-HCl pH 7.8, 30°C, forward reaction, monomeric enzyme
[3] = substrate: NC(=O)C1=CN([C@@H]2O[C@H](COP(=O)(O)OP(=O)(O)OC[C@H]3O[C@@H](n4cnc5c(N)ncnc54)[C@H](O)[C@@H]3O)[C@@H](O)[C@H]2O)C=CC1; experiment: purified protein; format: biochemical, Nitrosopumilus maritimus; conditions: 0.2 mM acetoacetyl-CoA, 100 mM Tris-HCl pH 7.8, 30°C, reverse reaction, monomeric enzyme
[4] = substrate: NC(=O)c1ccc[n+]([C@@H]2O[C@H](COP(=O)(O)OP(=O)(O)OC[C@H]3O[C@@H](n4cnc5c(N)ncnc54)[C@H](O)[C@@H]3O)[C@@H](O)[C@H]2O)c1; experiment: purified protein; format: biochemical, Nitrosopumilus maritimus; conditions: 0.2 mM (S)-3-hydroxybutyryl-CoA, 100 mM Tris-HCl pH 7.8, 30°C, forward reaction, monomeric enzyme
[5] = substrate: NC(=O)c1ccc[n+]([C@@H]2O[C@H](COP(=O)(O)OP(=O)(O)OC[C@H]3O[C@@H](n4cnc5c(N)ncnc54)[C@H](OP(=O)(O)O)[C@@H]3O)[C@@H](O)[C@H]2O)c1; experiment: purified protein; format: biochemical, Nitrosopumilus maritimus; conditions: 0.2 mM (S)-3-hydroxybutyryl-CoA, 100 mM Tris-HCl pH 7.8, 30°C, forward reaction, monomeric enzyme
[6] = target: the molecule itself; experiment: SEC; Superdex 200 Increase (24 ml), 0.75 ml/min, 20 mM Tris-HCl pH 7.8, 150 mM KCl; native mass from a standard curve (apoferritin, alcohol dehydrogenase, BSA, carbonic anhydrase)

B1: (S)-3-hydroxybutyryl-CoA dehydrogenase Nmar_1028 (enzyme, Nitrosopumilus maritimus SCM1, UniProt A9A3J2 1-379, looked up)
chain: MAVKNITILGSGVMGHGIAQVSATAGYNVVLRDIEQGFLDKAMEKIRWSLDKLVSKEKISKEEGDSIFGRITPVVDLKEAVKDAELVIEVVPEIMDLKKKVYAELDEVAAPEVIFASNTSTLPITEIANTTSRPDKFIGIHFFNPPQLMKLVEVIPGEKTSQEITDLTKDYVKSVNKQAVLCRKDVPGFIINRLFIPMVHEACYAKDRTGATLEEIDSAVKFNLGFPMGIFELADFTGMDVIHKATVEMHLRDKKVINPHPTVEKMFDEKKLGQKSGEGYYKYSDDKYERVELSQELAQKFNPIQLVANILNNAAWLVTNGASDIEEIEKAAQLGLGLKKPLFETAKEIGIKNIVDELNKLAEEHGEFYKPDPLLTSMQ
notes: (S)-3-hydroxybutyryl-CoA dehydrogenase Nmar_1028 of Nitrosopumilus maritimus strain SCM1; gene amplified from genomic DNA from the initiation codon to after the stop codon; predicted size 44.8 kDa; No removal of the His10 tag is described; also called HBDH; source: E. coli Rosetta 2 (DE3), purified (Ni-NTA)
Km [1]: 0.026 ± 0.004 mM | Vmax [1]: 145 µmol/min/mg | kcat [1]: 108 s⁻¹ | kcat/Km [1]: 4.04e+06 M⁻¹ s⁻¹ | Km [2]: 0.019 ± 0.002 mM | Vmax [2]: 98.6 µmol/min/mg | kcat [2]: 74 s⁻¹ | kcat/Km [2]: 3.88e+06 M⁻¹ s⁻¹ | Km [3]: 0.016 ± 0.006 mM | Vmax [3]: 113 µmol/min/mg | kcat/Km [3]: 5.27e+06 M⁻¹ s⁻¹ | Km [4]: 0.10 ± 0.02 mM | Vmax [4]: 84.4 µmol/min/mg | kcat/Km [4]: 630000 M⁻¹ s⁻¹ | Km [5]: 2.92 ± 0.63 mM | Vmax [5]: 10.1 µmol/min/mg | kcat/Km [5]: 3000 M⁻¹ s⁻¹ | stoichiometry N [6]: 2

From article PMC8287830, “(S)-3-Hydroxybutyryl-CoA Dehydrogenase From the Autotrophic 3-Hydroxypropionate/4-Hydroxybutyrate Cycle in Nitrosopumilus maritimus” (Frontiers in Microbiology, 2021)
